Laboratory results as given in patent US20240034774A1.
Residue numbers refer to the chain shown, from its start.

B1: Antibody 1.1.104-1 (antibody, human IgG1, kappa, V domains shown)
VH: QVQLLQSGAAVTKPGASVRVSCEASGYNIRDYFIHWWRQAPGQGLQWVGWINPKTGQPNNPRQFQGRVSLTRHASWDFDTFSFYMDLKALRSDDTAVYFCARQRSDYWDFDVWGSGTQVTVSS
VL: DIQMTQSPSSLSASVGDTATITCQANGYLNWYQQRRGKAPKLLIYDGSKLERGVPSRFSGRRWGQEYTLTINNLQPEDIATYFCQVYEFFGPGTRLDLKR
B2: Antibody 1.1.119-1 (antibody, human IgG1, kappa, V domains shown)
VH: B1 VH
VL: B1 VL with T18R, R61S, N72S, N73S
B3: Antibody 1.36.35-1 (antibody, human IgG1, kappa, V domains shown)
VH: QVQLVQSGAEVKKPGASVRVSCKASGYNIRDYFMHWWRQAPGQGLQWVGWINPKTGQPNNPRQFQGRVTMTRHASWDFDTFSAYMDLSRLRSDDTATYFCARQRTDYWDFDVWGQGTMVTVSS
VL: DIQMTQSPSSLSASVGDRVTITCQANGYLNWYQQKPGKAPKLLIYDGSNLETGVPSRFSGSRWGQEYTLTISSLQPEDIATYFCQVYEFVGPGTNLDIKR

Columns and labels:
Test in all cases: cell-based or functional assay
[1] = target: HIV-1 envelope glycoprotein (gp120) of virus 1413 (HIV-1)
[2] = target: HIV-1 envelope glycoprotein (gp120) of virus VS017 (HIV-1)
[3] = target: HIV-1 envelope glycoprotein (gp120) of virus VS046 (HIV-1)
[4] = target: HIV-1 envelope glycoprotein (gp120) of virus 7576 (HIV-1)
[5] = target: HIV-1 envelope glycoprotein (gp120) of virus 92US657 (HIV-1)
[6] = target: HIV-1 envelope glycoprotein (gp120) of virus 8134 (HIV-1)
[7] = target: HIV-1 envelope glycoprotein (gp120) of virus 7552 (HIV-1)
[8] = target: HIV-1 envelope glycoprotein (gp120) of virus 92US727 (HIV-1)
[9] = target: HIV-1 envelope glycoprotein (gp120) of virus REJO (HIV-1)
[10] = target: HIV-1 envelope glycoprotein (gp120) of virus VS004 (HIV-1)
[11] = target: HIV-1 envelope glycoprotein (gp120) of virus 8106 (HIV-1)
[12] = target: HIV-1 envelope glycoprotein (gp120) of virus 8176 (HIV-1)
[13] = target: HIV-1 envelope glycoprotein (gp120) of virus CHO77 (HIV-1)
[14] = target: HIV-1 envelope glycoprotein (gp120) of virus 92US712 (HIV-1)
[15] = target: HIV-1 envelope glycoprotein (gp120) of virus 7467 (HIV-1)
[16] = target: HIV-1 envelope glycoprotein (gp120) of virus VS001 (HIV-1)
[17] = target: HIV-1 envelope glycoprotein (gp120) of virus 8320 (HIV-1)
[18] = target: HIV-1 envelope glycoprotein (gp120) of virus VS026 (HIV-1)
[19] = target: HIV-1 envelope glycoprotein (gp120) of virus VS043 (HIV-1)
[20] = target: HIV-1 envelope glycoprotein (gp120) of virus 1012 (HIV-1)
[21] = target: HIV-1 envelope glycoprotein (gp120) of virus 7051 (HIV-1)
[22] = target: HIV-1 envelope glycoprotein (gp120) of virus THRO (HIV-1)
[23] = target: HIV-1 envelope glycoprotein (gp120) of virus VS039 (HIV-1)
[24] = target: HIV-1 envelope glycoprotein (gp120) of virus 8117 (HIV-1)
[25] = target: HIV-1 envelope glycoprotein (gp120) of virus 92HT593 (HIV-1)
[26] = target: HIV-1 envelope glycoprotein (gp120) of virus VS030 (HIV-1)
[27] = target: HIV-1 envelope glycoprotein (gp120) of virus 1003 (HIV-1)
[28] = target: HIV-1 envelope glycoprotein (gp120) of virus 7015 (HIV-1)
[29] = target: HIV-1 envelope glycoprotein (gp120) of virus VS044 (HIV-1)
[30] = target: HIV-1 envelope glycoprotein (gp120) of virus 1489 (HIV-1)
[31] = target: HIV-1 envelope glycoprotein (gp120) of virus VS042 (HIV-1)
[32] = target: HIV-1 envelope glycoprotein (gp120) of virus 8318 (HIV-1)
[33] = target: HIV-1 envelope glycoprotein (gp120) of virus 7595 (HIV-1)
[34] = target: HIV-1 envelope glycoprotein (gp120) of virus 7103 (HIV-1)
[35] = target: HIV-1 envelope glycoprotein (gp120) of virus 302076 (HIV-1)
[36] = target: HIV-1 envelope glycoprotein (gp120) of virus 7141 (HIV-1)
[37] = target: HIV-1 envelope glycoprotein (gp120) of virus VS049 (HIV-1)
[38] = target: HIV-1 envelope glycoprotein (gp120) of virus 8110 (HIV-1)
[39] = target: HIV-1 envelope glycoprotein (gp120) of virus 7714 (HIV-1)
[40] = target: HIV-1 envelope glycoprotein gp120 of virus 92US657 (HIV-1 (subtype B))
[41] = target: HIV-1 envelope glycoprotein gp120 of virus BaL (HIV-1 (subtype B))
[42] = target: HIV-1 envelope glycoprotein gp120 of virus CHO77 (HIV-1 (subtype B))

Row | Binder | Virus Neutralization Potency [1] | Virus Neutralization Potency [2] | Virus Neutralization Potency [3] | Virus Neutralization Potency [4] | Virus Neutralization Potency [5] | Virus Neutralization Potency [6] | Virus Neutralization Potency [7] | Virus Neutralization Potency [8] | Virus Neutralization Potency [9] | Virus Neutralization Potency [10] | Virus Neutralization Potency [11] | Virus Neutralization Potency [12] | Virus Neutralization Potency [13] | Virus Neutralization Potency [14] | Virus Neutralization Potency [15] | Virus Neutralization Potency [16] | Virus Neutralization Potency [17] | Virus Neutralization Potency [18] | Virus Neutralization Potency [19] | Virus Neutralization Potency [20] | other results
1 | B1 | 4.34 µg/mL | 2.33 µg/mL | 0.03 µg/mL | 1.1 µg/mL | 0.36 µg/mL | 6.07 µg/mL | > 80 µg/mL | 10.6 µg/mL | 0.02 µg/mL | 4.8 µg/mL | 2.8 µg/mL | 0.16 µg/mL | 0.03 µg/mL | 0.04 µg/mL | 0.06 µg/mL | 0.34 µg/mL | 4.34 µg/mL | 0.19 µg/mL | 1.49 µg/mL | 2.87 µg/mL | Virus Neutralization Potency [21]: 1.32 µg/mL; Virus Neutralization Potency [22]: 4.27 µg/mL; Virus Neutralization Potency [23]: 0.1 µg/mL; Virus Neutralization Potency [24]: 1.22 µg/mL; Virus Neutralization Potency [25]: 0.28 µg/mL; Virus Neutralization Potency [26]: 7.9 µg/mL; Virus Neutralization Potency [27]: 1.44 µg/mL; Virus Neutralization Potency [28]: 0.67 µg/mL; Virus Neutralization Potency [29]: 0.28 µg/mL; Virus Neutralization Potency [30]: 0.28 µg/mL; Virus Neutralization Potency [31]: 2.33 µg/mL; Virus Neutralization Potency [32]: 0.32 µg/mL; Virus Neutralization Potency [33]: 8.47 µg/mL; Virus Neutralization Potency [34]: 1.82 µg/mL; Virus Neutralization Potency [35]: 0.1 µg/mL; Virus Neutralization Potency [36]: 6.57 µg/mL; Virus Neutralization Potency [37]: > 100 µg/mL; Virus Neutralization Potency [38]: 4.19 µg/mL
2 | B2 | 4.52 µg/mL | 2.75 µg/mL | 0.03 µg/mL | 0.6 µg/mL | 0.3 µg/mL | 3.44 µg/mL | > 80 µg/mL | 43.7 µg/mL | 0.03 µg/mL | 6.02 µg/mL | 1.44 µg/mL | 0.27 µg/mL | 0.02 µg/mL | 0.03 µg/mL | 0.19 µg/mL | 0.37 µg/mL | 1.47 µg/mL | 0.14 µg/mL | 0.81 µg/mL | 1.06 µg/mL | Virus Neutralization Potency [39]: 1.93 µg/mL; Virus Neutralization Potency [21]: 1.89 µg/mL; Virus Neutralization Potency [22]: 2.8 µg/mL; Virus Neutralization Potency [23]: 0.13 µg/mL; Virus Neutralization Potency [24]: 1.66 µg/mL; Virus Neutralization Potency [25]: 0.15 µg/mL; Virus Neutralization Potency [26]: 4.96 µg/mL; Virus Neutralization Potency [27]: 0.91 µg/mL; Virus Neutralization Potency [28]: 1.08 µg/mL; Virus Neutralization Potency [29]: 0.2 µg/mL; Virus Neutralization Potency [30]: 0.17 µg/mL; Virus Neutralization Potency [31]: 2.19 µg/mL; Virus Neutralization Potency [32]: 0.42 µg/mL; Virus Neutralization Potency [33]: 3.07 µg/mL; Virus Neutralization Potency [34]: 1.16 µg/mL; Virus Neutralization Potency [35]: 0.08 µg/mL; Virus Neutralization Potency [36]: 4.98 µg/mL; Virus Neutralization Potency [37]: > 100 µg/mL; Virus Neutralization Potency [38]: 2.37 µg/mL
3 | B3 |  |  |  |  |  |  |  |  |  |  |  |  |  |  |  |  |  |  |  |  | Virus Neutralization Potency (IC50) [40]: 5.37 µg/mL; Virus Neutralization Potency (IC50) [41]: > 20 µg/mL; Virus Neutralization Potency (IC50) [42]: 0.32 µg/mL
